Assay results published in patent CN101022829A (GENENTECH INC, dated 2007).
Numbering of substitutions follows the chain as printed.

Experiments:
human CD20 (human) [1] = target: T1, human CD20 (human) (UniProt P11836); assay: Scatchard, competition with 125I-2H7.v16 on WIL2-S cells, n=3
T1 sequence (looked up): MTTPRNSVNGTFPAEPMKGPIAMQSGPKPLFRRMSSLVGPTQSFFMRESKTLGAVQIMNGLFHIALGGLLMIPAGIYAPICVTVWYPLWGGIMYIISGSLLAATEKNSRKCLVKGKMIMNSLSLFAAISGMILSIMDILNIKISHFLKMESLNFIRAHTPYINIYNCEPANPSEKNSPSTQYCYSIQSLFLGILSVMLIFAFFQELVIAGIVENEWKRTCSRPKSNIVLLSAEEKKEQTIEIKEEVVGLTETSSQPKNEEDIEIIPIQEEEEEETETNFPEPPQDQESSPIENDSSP

human CD20 (human) [2] = target: T1, human CD20 (human); assay: cell-based or functional assay
human CD20 [3] = target: T2, human CD20 (human, UniProt P11836 1-297); assay: cell ELISA, WIL2-S; v16 as comparator, normalised to chimera
T2 construct: whole, on cells; also called Bp35
T2 sequence (looked up): T1 sequence (looked up)

human CD20 [4] = target: T2, human CD20; assay: Scatchard, competition with 125I-2H7.v16 on WIL2-S cells, n=4

## RITUXAN (rituximab) (antibody)
Human CD20 (human) [1]
  Kd: 0.99 nM
Human CD20 (human) [2]
  ADCC, EC50(variant)/EC50(2H7.v16): 5.3
  ADCC, EC50(variant)/EC50(RITUXAN): 1
  CDC, EC50(variant)/EC50(RITUXAN): 1

B1: 2H7.v138 (antibody, human IgG1, kappa, V domains shown)
VH: EVQLVESGGGLVQPGGSLRLSCAASGYTFTSYNMHWVRQAPGKGLEWVGAIYPGNGATSYNQKFKGRFTISVDKSKNTLYLQMNSLRAEDTAVYYCARVVYYSASYWYFDVWGQGTLVTVSS
VL: DIQMTQSPSSLSASVGDRVTITCRASSSVSYLHWYQQKPGKAPKPLIYAPSNLASGVPSRFSGSGSGTDFTLTISSLQPEDFATYYCQQWAFNPPTFGQGTKVEIKR
Human CD20 [3]
  relative binding (ratio to v6.8): 1.2

B2: 2H7.v73 (antibody, V domains shown)
VH: B1 VH with A57D
VL: B1 VL with A91S
Human CD20 [4]
  Kd: 1.22 nM
